From article PMC4278327, “Pathways driving the endocytosis of mutant and wild-type EGFR in cancer” (Oncoscience, 2014)

Target: T1, wild-type EGFR (epidermal growth factor receptor) (UniProt P00533 25-1210)
T1 construct: EGFR, wild type, expressed from the plasmid pcDNA3.1-EGFR; Probably the whole human receptor, expressed in cells that have no EGFR of their own; source: MDA-MB-435, transfected (pcDNA3.1-EGFR), in lysate
Experiment: co-IP; lysates of MDA-MB-435 cells transfected with EGFR plasmids, immunoprecipitated with the anti-EGFR antibody IMC-C225; western blot with the anti-S2R^PGRMC1 antibody PGR-UK1; representative of three independent experiments
Details: partners not purified

B1: S2R^PGRMC1 (sigma-2 receptor / progesterone receptor membrane component 1) (natural protein)
chain: not shown
notes: PGRMC1 (progesterone receptor membrane component 1), endogenous in MDA-MB-435 human breast cancer cells, detected with the antibody PGR-UK1; source: endogenous, MDA-MB-435 lysate
  fold co-precipitated, wild-type EGFR against the EGFR-Δ747-749/A750P mutant: 2.4 fold
